Legend:
[1] = target: T1, Tgo-H4 (RT-H4) DNA polymerase V93Q;I114T;D141A;E143A;S383K;E429G;F445L;A485L;F493V;Y496H;Y497M;Y499F;A500E;K501N;I521L;E664K;K726R;N735K (UniProt P56689); assay: fluorescence polarization; details: template fully HNA (1,5-anhydrohexitol nucleic acid); primer DNA; FP: 1x ThermoPol (20 mM Tris-HCl, 10 mM (NH4)2SO4, 10 mM KCl, 2 mM MgSO4, 0.1% Triton X-100, pH 8.8), 25 C, 20 min, 5 nM labeled primer
T1 sequence: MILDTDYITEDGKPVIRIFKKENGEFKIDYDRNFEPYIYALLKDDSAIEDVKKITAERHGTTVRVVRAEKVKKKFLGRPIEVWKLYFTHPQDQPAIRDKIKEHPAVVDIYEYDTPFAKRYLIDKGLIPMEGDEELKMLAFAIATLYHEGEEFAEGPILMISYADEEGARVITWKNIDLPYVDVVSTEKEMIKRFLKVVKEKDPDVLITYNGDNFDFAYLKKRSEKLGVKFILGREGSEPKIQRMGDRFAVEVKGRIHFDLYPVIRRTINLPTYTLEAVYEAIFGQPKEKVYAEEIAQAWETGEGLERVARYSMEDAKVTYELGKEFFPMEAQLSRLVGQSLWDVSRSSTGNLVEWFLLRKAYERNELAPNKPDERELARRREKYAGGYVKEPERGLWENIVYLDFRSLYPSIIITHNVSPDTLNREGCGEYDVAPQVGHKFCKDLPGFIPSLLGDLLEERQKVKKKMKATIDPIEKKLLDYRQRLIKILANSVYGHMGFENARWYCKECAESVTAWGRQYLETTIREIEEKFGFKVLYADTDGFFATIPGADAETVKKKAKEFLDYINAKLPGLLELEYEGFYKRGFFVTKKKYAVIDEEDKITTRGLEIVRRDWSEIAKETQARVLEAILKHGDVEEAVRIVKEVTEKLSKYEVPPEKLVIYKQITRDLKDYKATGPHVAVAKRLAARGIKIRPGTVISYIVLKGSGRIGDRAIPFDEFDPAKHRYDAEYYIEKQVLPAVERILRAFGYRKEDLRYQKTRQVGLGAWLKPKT

[2] = target: T2, KOD-H4 DNA polymerase V93Q;I114T;D141A;E143A;S383K;K429G;F445L;A485L;Y493V;Y496H;Y497M;Y499F;A500E;R501N;I521L;E664K;K726R;N735K (Thermococcus kodakarensis KOD?) (UniProt D0VWU9); assay: fluorescence polarization; details: template fully HNA (1,5-anhydrohexitol nucleic acid); primer DNA; FP: 1x ThermoPol (20 mM Tris-HCl, 10 mM (NH4)2SO4, 10 mM KCl, 2 mM MgSO4, 0.1% Triton X-100, pH 8.8), 25 C, 20 min, 5 nM labeled primer
T2 sequence: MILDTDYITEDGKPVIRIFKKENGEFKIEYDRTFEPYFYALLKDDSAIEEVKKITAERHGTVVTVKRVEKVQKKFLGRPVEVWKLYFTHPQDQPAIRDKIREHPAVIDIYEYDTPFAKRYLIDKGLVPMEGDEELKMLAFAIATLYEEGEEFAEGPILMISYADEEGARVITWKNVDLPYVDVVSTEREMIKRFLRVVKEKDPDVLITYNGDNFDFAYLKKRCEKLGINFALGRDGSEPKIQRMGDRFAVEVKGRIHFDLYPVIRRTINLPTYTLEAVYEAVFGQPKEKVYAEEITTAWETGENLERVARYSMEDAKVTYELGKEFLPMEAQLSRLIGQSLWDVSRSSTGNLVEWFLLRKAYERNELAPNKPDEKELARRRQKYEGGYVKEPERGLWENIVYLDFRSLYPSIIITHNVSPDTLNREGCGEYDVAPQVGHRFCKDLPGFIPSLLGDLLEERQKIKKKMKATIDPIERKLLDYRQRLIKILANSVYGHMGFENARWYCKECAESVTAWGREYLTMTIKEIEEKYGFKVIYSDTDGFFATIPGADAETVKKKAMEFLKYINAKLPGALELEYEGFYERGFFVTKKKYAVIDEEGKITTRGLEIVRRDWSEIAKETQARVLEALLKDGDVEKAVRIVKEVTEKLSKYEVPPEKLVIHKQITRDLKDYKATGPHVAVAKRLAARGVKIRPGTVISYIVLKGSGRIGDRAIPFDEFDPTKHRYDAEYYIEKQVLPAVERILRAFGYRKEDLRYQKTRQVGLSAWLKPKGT

KOD-H4 DNA polymerase [3] = target: T3, KOD-H4 DNA polymerase (UniProt D0VWU9 1-774, V93Q;I114T;D141A;E143A;S383K;K429G;F445L;A485L;Y493V;Y496H;Y497M;Y499F;A500E;R50 …); assay: fluorescence polarization; 2 mM MgSO4; apparent KD, Hill slope 1.67; FP: 1x ThermoPol (20 mM Tris-HCl, 10 mM (NH4)2SO4, 10 mM KCl, 2 mM MgSO4, 0.1% Triton X-100, pH 8.8), 25 C, 20 min, 5 nM labeled primer; details: protein: recombinant; label: 5'-6-FAM on primer; 5' overhang 6 nt on template; 10-nt duplex
T3 sequence: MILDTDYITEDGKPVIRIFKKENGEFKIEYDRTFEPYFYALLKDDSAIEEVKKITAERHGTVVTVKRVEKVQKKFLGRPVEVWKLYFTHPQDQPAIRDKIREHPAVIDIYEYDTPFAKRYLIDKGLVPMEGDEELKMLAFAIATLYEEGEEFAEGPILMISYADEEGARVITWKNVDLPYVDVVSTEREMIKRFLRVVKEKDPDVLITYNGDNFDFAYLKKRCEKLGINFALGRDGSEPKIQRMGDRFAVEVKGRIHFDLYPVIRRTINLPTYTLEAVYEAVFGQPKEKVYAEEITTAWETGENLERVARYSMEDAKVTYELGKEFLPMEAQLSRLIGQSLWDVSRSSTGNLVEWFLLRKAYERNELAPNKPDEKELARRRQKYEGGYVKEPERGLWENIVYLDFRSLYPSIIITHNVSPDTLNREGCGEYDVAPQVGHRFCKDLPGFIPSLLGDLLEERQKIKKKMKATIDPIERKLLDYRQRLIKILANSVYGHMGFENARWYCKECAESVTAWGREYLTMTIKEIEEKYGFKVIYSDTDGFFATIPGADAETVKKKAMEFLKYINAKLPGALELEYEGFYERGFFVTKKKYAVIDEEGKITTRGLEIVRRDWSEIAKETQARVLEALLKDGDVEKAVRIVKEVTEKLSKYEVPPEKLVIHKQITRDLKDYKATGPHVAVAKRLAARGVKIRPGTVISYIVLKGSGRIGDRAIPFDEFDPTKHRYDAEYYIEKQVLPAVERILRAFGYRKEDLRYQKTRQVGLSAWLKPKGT

[4] = target: T4, Tgo-H4 (RT-H4) DNA polymerase (UniProt P56689 1-773, V93Q;I114T;D141A;E143A;S383K;E429G;F445L;A485L;F493V;Y496H;Y497M;Y499F;A500E;K50 …); assay: fluorescence polarization; 2 mM MgSO4; apparent KD, Hill slope 1.66; FP: 1x ThermoPol (20 mM Tris-HCl, 10 mM (NH4)2SO4, 10 mM KCl, 2 mM MgSO4, 0.1% Triton X-100, pH 8.8), 25 C, 20 min, 5 nM labeled primer; details: protein: recombinant; label: 5'-6-FAM on primer; 5' overhang 6 nt on template; 10-nt duplex
T4 sequence: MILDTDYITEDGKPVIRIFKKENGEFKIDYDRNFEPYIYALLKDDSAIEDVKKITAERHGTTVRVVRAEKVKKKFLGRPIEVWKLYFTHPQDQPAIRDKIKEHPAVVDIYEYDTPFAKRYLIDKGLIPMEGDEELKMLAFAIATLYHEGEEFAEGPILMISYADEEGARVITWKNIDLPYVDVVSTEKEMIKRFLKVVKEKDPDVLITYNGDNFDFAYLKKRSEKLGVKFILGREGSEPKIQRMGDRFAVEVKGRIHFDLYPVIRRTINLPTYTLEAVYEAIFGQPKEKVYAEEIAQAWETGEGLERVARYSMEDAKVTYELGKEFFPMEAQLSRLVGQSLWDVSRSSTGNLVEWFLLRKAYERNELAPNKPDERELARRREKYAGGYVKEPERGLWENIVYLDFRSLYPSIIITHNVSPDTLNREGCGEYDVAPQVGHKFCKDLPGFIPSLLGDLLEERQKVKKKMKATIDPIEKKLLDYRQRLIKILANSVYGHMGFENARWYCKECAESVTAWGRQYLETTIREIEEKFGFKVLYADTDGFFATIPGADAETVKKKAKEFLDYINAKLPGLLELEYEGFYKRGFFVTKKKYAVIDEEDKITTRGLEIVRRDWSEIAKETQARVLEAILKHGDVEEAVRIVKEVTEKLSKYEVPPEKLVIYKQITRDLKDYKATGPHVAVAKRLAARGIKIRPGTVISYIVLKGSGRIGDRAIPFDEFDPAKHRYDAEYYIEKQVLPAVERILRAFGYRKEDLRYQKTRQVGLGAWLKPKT

KOD-H4 DNA polymerase [5] = target: T3, KOD-H4 DNA polymerase; assay: X-ray crystallography; dGTP analogue dGMPNPP-type (alpha,beta-imido, NHdGTP); Mg2+ or Mg2+/Mn2+; FP: 1x ThermoPol (20 mM Tris-HCl, 10 mM (NH4)2SO4, 10 mM KCl, 2 mM MgSO4, 0.1% Triton X-100, pH 8.8), 25 C, 20 min, 5 nM labeled primer; details: protein: recombinant; 5' overhang 3 nt on template; 13-nt duplex

“GACCACGGCC / AACTGTGGCCGTGGTC [DNA primer/HNA template (FP)]” was tested. Which Kd [1] did it give?
Its Kd is 0.0615 µM.

And the Kd [2]?
The Kd was 0.0802 µM.

B1: DNA primer/DNA template (FP) (dsDNA)
DNA 1: GACCACGGCC
DNA 2: AACTGTGGCCGTGGTC
Which Kd (KOD-H4 DNA polymerase [3]) does the source give for B1 here?
Its Kd is 0.0125 µM.

And the Kd [4]?
The Kd was 0.01 µM.

B2: 13mer DNA primer/DNA template (crystal) (dsDNA)
DNA 1: GACCACGGCCACA
DNA 2: AACTGTGGCCGTGGTC
Does B2 bind (KOD-H4 DNA polymerase [5])?
Result: binds

— article PMC11724289, “Structural insights into a DNA polymerase reading the xeno nucleic acid HNA”
